Reference: article PMC9860317, “Regulation of the DEAH/RHA helicase Prp43 by the G-patch factor Pfa1” (Proceedings of the National Academy of Sciences of the …, 2022)
Values joined by “and” are separate entries in the source; they are usually repeats but may differ in a detail not shown here. Identical values can stand only once. Blank lines part the entries; values can stand above or below the substance they belong to.

What was measured:
[1] = biological target: Chaetomium thermophilum Prp43 with fluorescence labelling sites at C170 (RecA1) and C303 (RecA2), Cy3/Cy5-labelled (Chaetomium thermophilum)
[2] = biological target: scPrp43 (Saccharomyces cerevisiae S288c) (UniProt P53131); experiment: smFRET (TIRF); settings: smFRET: 50 mM Tris-HCl pH 7.5, 150 mM KCl, 3 mM MgCl2 (TIRF buffer B; imaging in TIRF buffer C), FP: 6 nM labeled ssRNA, buffer and temperature not in material
[3] = biological target: T1, scPrp43;scPfa1(gp) (Saccharomyces cerevisiae S288c;Saccharomyces cerevisiae) (UniProt P53131+P53866); experiment: smFRET (TIRF); settings: smFRET: 50 mM Tris-HCl pH 7.5, 150 mM KCl, 3 mM MgCl2 (TIRF buffer B; imaging in TIRF buffer C), FP: 6 nM labeled ssRNA, buffer and temperature not in material
[4] = biological target: scPrp43 (Saccharomyces cerevisiae S288c) (UniProt P53131); experiment: fluorescence polarization; settings: smFRET: 50 mM Tris-HCl pH 7.5, 150 mM KCl, 3 mM MgCl2 (TIRF buffer B; imaging in TIRF buffer C), FP: 6 nM labeled ssRNA, buffer and temperature not in material
[5] = biological target: T1, scPrp43;scPfa1(gp) (Saccharomyces cerevisiae S288c;Saccharomyces cerevisiae); experiment: fluorescence polarization; settings: smFRET: 50 mM Tris-HCl pH 7.5, 150 mM KCl, 3 mM MgCl2 (TIRF buffer B; imaging in TIRF buffer C), FP: 6 nM labeled ssRNA, buffer and temperature not in material

ATP turnover (kcat) of the Prp43–Pfa1(gp) complex with ssRNA, coupled enzymatic assay [1]: 9.6 s⁻¹ | ATP turnover (kcat) of the Prp43–Pfa1(gp) complex without ssRNA, coupled enzymatic assay (Prp43 alone: kcat = 0.01 s^-1) [1]: 0.4 s⁻¹
Substance: G-patch motif of Chaetomium thermophilum Pfa1 (domain or fragment)

Substance: GCGCCUACGCCACCAGCUCCGUAGGCGCAGGAGCGCCUACGGAGCUGGUGGCGUAGGCGCAAAAAAAAAAAAAAAUAAAAAAAAAAAAAAAAAAAA [smFRET stem-loop RNA probe with 3' overhang]
binding signal ([2]; 0.5 uM Prp43, 2 mM AMPPNP): 36 % bound | binding signal ([2]; 5 uM Prp43, apo (main text gives 24%)): 21 % bound | binding signal ([3]; 0.5 uM Prp43, 2.5 uM Pfa1(gp), nucleotide-free): 88 % bound | binding signal (% bound (plus 20% partially unwound)) ([3]; 2 uM ATP, table row label cut, matched by FRET values): 55 | binding signal ([3]; ADP, koff 0.45 s-1): 52 % bound

Substance: ssRNA (fluorescence polarization)
Kd ([4]; ADP): > 100000 nM | Kd ([4]; AMPPNP): 400 nM | Kd ([4]; nucleotide-free): 7000 nM | Kd ([5]; nucleotide-free, with Pfa1(gp)): 30 nM | Kd [5]: 80 nM and 500 nM
